In this test the test system is KG-1 cells. As to the kind of experiment: FACS and binding competition on KG-1 cells (Y1 forms and multimers). Details: species or system human. To be noted: 5 μg and 10 μg. The source says:
To compare the binding of the scFv monomer (also referred to as CONY1) with the Y1 dimer, binding competition experiments were done in vitro on KG-1 cells. In addition, these experiments also compared the binding of the full Y1 IgG to the scFv Y1 monomers. To perform this study, a Y1 IgG was labeled with biotin.
In a preferred method, tetramers are formed via a biotin/streptavidin association. A novel fermentation construct that is capable of being enzymatically labeled with biotin (referred to herein as Y1-biotag or Y1-B) was created. A sequence that is a substrate for the BirA enzyme was added at the Y1C-terminus. The BirA enzyme adds a biotin to the lysine residue within the sequence. Y1-biotag was expressed in E. coli. The inclusion body material was isolated and refolded. The purity of the folded protein was >95%, and >100 mg were obtained from a 1-L culture (small-scale, non-optimized conditions). […] Nevertheless, this construct offered the advantage of specific biotinylation in which the binding site of the molecule remains intact. Further, each molecule is labeled by only one biotin—each molecule receives one biotin on the carboxyl end.
Limiting labeling to one biotin/molecule in a desired location enabled production of tetramers with streptavidin. The tetramers were formed by incubating Y1-B with steptavidin-PE. […]

B1: Y1 scFv: fully human scFv clone binding platelets and myelogenous leukemia cells; SEQ ID NO: 25, heavy chain CDR3 SEQ ID NO: 8 (protein, listed as Homo sapiens)
scFv: MKYLLPTAAAGLLLLAAQPAMAEVQLVESGGGVVRPGGSLRLSCAASGFTFDDYGMSWVRQAPGKGLEWVSGINWNGGSTGYADSVKGRFTISRDNAKNSLYLQMNSLRAEDTAVYYCARMRAPVIWGQGTLVTVSRGGGGSGGGGSGGGGSSELTQDPAVSVALGQTVRITCQGDSLRSYYASWYQQKPGQAPVLVIYGKNNRPSGIPDRFSGSSSGNTASLTITGAQAEDEADYYCNSRDSSGNHVVFGGGTKLTVLGAAAEQKLISEEDLNGAA
Consider B1, for which the “competition with Y1 IgG-Biotin (50 ng)” value is given as “partially competed”.

Values taken from patent US20040002450A1, “Y17 - isolated molecules comprising epitopes containing sulfated moieties, antibodies to such epitopes, and uses thereof” (priority 2000, published 2004).
